Source: paper PMC9482650, “Quantitative fragmentomics allow affinity mapping of interactomes” (Nature Communications, 2022)

Tests used:
Test in all cases: holdup assay
Parameters in all cases: key: below the threshold = too weak to quantify, mostly under pKd 3.1 to 4
[1] = molecular target: LAP2, Q96RT1
[2] = molecular target: T1, DFNB31_2, Q9P202
T1 sequence (Q9P202 274-371, limits assumed, looked up): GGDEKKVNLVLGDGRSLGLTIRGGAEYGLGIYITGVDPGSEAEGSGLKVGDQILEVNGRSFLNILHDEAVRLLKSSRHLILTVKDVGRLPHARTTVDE

[3] = molecular target: T2, SHANK1, Q9Y566
T2 sequence (Q9Y566 658-767, limits assumed, looked up): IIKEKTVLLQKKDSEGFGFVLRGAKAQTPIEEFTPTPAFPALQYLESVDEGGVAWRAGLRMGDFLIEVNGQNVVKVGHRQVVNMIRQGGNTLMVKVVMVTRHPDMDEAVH

[4] = molecular target: T3, MPP2, Q14168
T3 sequence (Q14168 180-250, limits assumed, looked up): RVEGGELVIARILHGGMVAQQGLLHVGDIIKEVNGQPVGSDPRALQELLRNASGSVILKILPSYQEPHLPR

[5] = molecular target: T4, ARHGAP21, Q5T5U3
T4 sequence (Q5T5U3 45-169, limits assumed, looked up): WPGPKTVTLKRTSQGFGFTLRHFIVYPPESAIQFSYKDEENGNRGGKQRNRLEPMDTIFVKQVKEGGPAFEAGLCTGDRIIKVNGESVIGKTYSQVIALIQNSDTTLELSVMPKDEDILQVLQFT

[6] = molecular target: PARD3_3, Q8TEW0
[7] = molecular target: GRASP, Q7Z6J2
[8] = molecular target: T5, TX1BP3, O14907
T5 sequence (O14907 10-122, limits assumed, looked up): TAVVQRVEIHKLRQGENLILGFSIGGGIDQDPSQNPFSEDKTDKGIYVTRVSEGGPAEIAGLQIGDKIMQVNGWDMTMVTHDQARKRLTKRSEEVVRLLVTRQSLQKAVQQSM

[9] = molecular target: Inadl_4, Q8NI35
[10] = molecular target: IL16_4, Q14005
[11] = molecular target: T6, GRIP1_2, Q9Y3R0
T6 sequence (Q9Y3R0 145-248, limits assumed, looked up): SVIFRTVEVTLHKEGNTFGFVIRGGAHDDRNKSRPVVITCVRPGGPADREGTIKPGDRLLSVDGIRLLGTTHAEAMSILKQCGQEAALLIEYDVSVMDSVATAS

[12] = molecular target: T7, HTRA4, P83105
T7 sequence (P83105 378-476, limits assumed, looked up): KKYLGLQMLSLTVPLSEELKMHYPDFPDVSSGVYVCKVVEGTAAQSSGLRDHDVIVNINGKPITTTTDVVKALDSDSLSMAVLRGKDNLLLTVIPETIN

[13] = molecular target: FRMPD2_2, Q68DX3
[14] = molecular target: DLG5_1, Q8TDM6
[15] = molecular target: Inadl_3, Q8NI35
[16] = molecular target: MAGI1_1, Q96QZ7
[17] = molecular target: MAGI3_2, Q5TCQ9
[18] = molecular target: GRIP2_3, Q9C0E4
[19] = molecular target: MAGI2_5, Q86UL8
[20] = molecular target: T8, PARD3B_1, Q8TEW8
T8 sequence (Q8TEW8 196-299, limits assumed, looked up): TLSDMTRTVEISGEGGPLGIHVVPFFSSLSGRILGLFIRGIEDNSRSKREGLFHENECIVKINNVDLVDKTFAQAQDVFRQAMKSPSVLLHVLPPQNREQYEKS

[21] = molecular target: T9, PDZRN3_1, Q9UPQ7
T9 sequence (Q9UPQ7 244-349, limits assumed, looked up): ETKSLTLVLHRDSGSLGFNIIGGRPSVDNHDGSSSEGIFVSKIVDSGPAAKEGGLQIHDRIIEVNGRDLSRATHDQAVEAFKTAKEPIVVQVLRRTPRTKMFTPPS

[22] = molecular target: DLG2_2, Q15700
[23] = molecular target: HTRA2, O43464
[24] = molecular target: GOPC, Q9HD26
[25] = molecular target: T10, SNTB1, Q13884
T10 sequence (Q13884 107-205, limits assumed, looked up): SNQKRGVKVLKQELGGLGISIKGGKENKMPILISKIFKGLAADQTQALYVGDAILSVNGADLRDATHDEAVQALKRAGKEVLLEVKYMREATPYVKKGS

[26] = molecular target: NHERF2_2, Q15599
[27] = plain residues with an end cap or a label only (N-terminal biotin on a linker: (peg)3)
[28] = plain residues with an end cap or a label only (N-terminal biotin on a linker: ado-ado)

Measured: pKd

Chain of MAGI3_2, Q5TCQ9 (Q5TCQ9 398-503): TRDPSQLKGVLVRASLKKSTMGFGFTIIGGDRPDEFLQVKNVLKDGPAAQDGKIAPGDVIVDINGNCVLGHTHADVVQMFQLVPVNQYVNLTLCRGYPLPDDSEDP
Chain of MAGI1_1, Q96QZ7 (Q96QZ7 1-106): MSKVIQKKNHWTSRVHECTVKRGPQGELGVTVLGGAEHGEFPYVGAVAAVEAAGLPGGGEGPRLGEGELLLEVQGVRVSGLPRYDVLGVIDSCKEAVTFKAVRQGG
Chain of PARD3_3, Q8TEW0 (Q8TEW0 582-685): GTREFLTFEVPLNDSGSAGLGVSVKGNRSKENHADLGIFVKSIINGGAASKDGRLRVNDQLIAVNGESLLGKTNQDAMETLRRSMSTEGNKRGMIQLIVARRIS
Chain of Inadl_3, Q8NI35 (Q8NI35 359-469): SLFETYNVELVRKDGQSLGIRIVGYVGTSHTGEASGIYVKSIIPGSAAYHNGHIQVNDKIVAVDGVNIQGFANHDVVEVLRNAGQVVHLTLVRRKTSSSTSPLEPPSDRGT
Chain of FRMPD2_2, Q68DX3 (Q68DX3 944-1038): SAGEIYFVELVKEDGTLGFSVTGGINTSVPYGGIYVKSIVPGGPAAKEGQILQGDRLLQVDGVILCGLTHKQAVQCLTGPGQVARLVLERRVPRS
Chain of MAGI2_5, Q86UL8 (Q86UL8 915-1017): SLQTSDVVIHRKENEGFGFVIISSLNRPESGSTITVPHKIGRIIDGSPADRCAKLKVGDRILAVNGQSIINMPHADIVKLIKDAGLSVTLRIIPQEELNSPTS
Chain of IL16_4, Q14005 (Q14005 1229-1329): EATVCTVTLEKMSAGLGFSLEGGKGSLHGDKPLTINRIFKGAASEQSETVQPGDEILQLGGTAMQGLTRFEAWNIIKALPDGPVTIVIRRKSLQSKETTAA
Chain of LAP2, Q96RT1 (Q96RT1 other isoform, or with tags, fused parts or gaps): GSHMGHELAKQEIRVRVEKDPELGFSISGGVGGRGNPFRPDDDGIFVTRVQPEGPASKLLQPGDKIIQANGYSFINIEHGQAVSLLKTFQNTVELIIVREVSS
Chain of Inadl_4, Q8NI35 (Q8NI35 547-651): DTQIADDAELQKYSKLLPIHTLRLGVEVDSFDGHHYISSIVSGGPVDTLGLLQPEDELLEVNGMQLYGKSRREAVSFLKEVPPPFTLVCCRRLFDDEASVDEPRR
Chain of NHERF2_2, Q15599 (Q15599 142-238): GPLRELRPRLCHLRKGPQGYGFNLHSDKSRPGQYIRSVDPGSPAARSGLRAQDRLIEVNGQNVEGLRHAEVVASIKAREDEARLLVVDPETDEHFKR
Chain of HTRA2, O43464 (O43464 355-458): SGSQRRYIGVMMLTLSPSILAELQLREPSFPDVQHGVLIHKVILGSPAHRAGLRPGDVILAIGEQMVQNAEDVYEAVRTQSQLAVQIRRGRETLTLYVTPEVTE
Chain of DLG2_2, Q15700 (Q15700 189-283): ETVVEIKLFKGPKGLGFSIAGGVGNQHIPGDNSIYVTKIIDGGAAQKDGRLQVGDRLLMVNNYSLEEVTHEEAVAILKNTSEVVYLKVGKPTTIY
Chain of DLG5_1, Q8TDM6 (Q8TDM6 617-713): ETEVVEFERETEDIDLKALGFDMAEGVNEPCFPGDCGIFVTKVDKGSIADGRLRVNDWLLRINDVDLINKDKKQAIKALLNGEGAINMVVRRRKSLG
Chain of GRASP, Q7Z6J2 (Q7Z6J2 96-193): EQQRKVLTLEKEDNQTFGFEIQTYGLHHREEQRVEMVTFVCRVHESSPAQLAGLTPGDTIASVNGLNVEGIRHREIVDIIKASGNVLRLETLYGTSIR
Chain of GRIP2_3, Q9C0E4 (Q9C0E4 238-339): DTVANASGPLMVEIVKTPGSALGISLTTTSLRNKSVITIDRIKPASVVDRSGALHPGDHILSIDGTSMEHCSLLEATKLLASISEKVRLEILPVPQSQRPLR

QQSMSSADSTQA [SARS-Cov2-N, P0DTC9]
below the threshold: [1]; [27] | [2]; [27] | [3]; [27] | [4]; [27] | [5]; [27] | [6]; [27] | [7]; [27] | [8]; [27] | [9]; [27] | [10]; [27] | [11]; [27] | [12]; [27] | [13]; [27] | [14]; [27] | [15]; [27] | [16]; [27] | [17]; [27] | [18]; [27] | [19]; [27] | [20]; [27] | [21]; [27] | [22]; [27] | [23]; [27] | [24]; [27] | [25]; [27] | [26]; [27]

ELSATVTTDC [TRIP6, Q15654]
4.34: [25]; [28]
3.83: [26]; [28]
3.47: [13]; [28]
3.48: [8]; [28]
3.59: [22]; [28]
4.27: [5]; [28]
3.82: [16]; [28]
3.54: [7]; [28]
below the threshold: [1]; [28] | [2]; [28] | [4]; [28] | [6]; [28] | [9]; [28] | [10]; [28] | [11]; [28] | [12]; [28] | [14]; [28] | [15]; [28] | [17]; [28] | [18]; [28] | [19]; [28] | [20]; [28] | [21]; [28] | [23]; [28] | [24]; [28]
3.63: [3]; [28]

PPGKHLVTEV [KCNA7, Q96RP8]
4.6: [7]; [28]
3.71: [3]; [28]
4.51: [13]; [28]
below the threshold: [2]; [28] | [4]; [28] | [5]; [28] | [6]; [28] | [9]; [28] | [10]; [28] | [11]; [28] | [14]; [28] | [16]; [28] | [18]; [28] | [20]; [28] | [21]; [28] | [23]; [28] | [26]; [28]
4.73: [19]; [28]
3.68: [24]; [28]
3.7: [15]; [28]
4.39: [1]; [28]
4.71: [17]; [28]
4.67: [8]; [28]
5.01: [22]; [28]
4.61: [12]; [28]
4.32: [25]; [28]

EDPRVEVTQF [SLC22A9, Q8IVM8]
4.26: [20]; [28]
5.02: [7]; [28]
4.86: [19]; [28]
5.36: [3]; [28]
4.61: [26]; [28]
below the threshold: [1]; [28] | [2]; [28] | [4]; [28] | [5]; [28] | [6]; [28] | [8]; [28] | [9]; [28] | [10]; [28] | [11]; [28] | [12]; [28] | [13]; [28] | [14]; [28] | [15]; [28] | [16]; [28] | [17]; [28] | [18]; [28] | [21]; [28] | [22]; [28] | [23]; [28] | [24]; [28] | [25]; [28]

DDASLPVSDV [PLEKHA1, Q9HB21]
3.65: [7]; [28]
3.5: [5]; [28]
4.87: [13]; [28]
3.73: [1]; [28]
4.25: [24]; [28]
3.84: [8]; [28]
4.59: [25]; [28]
below the threshold: [2]; [28] | [3]; [28] | [4]; [28] | [6]; [28] | [9]; [28] | [10]; [28] | [11]; [28] | [12]; [28] | [14]; [28] | [15]; [28] | [16]; [28] | [17]; [28] | [18]; [28] | [19]; [28] | [20]; [28] | [21]; [28] | [22]; [28] | [23]; [28] | [26]; [28]
